The results in this text go back to the supplement of paper PMC12764529.

Data set [1] in a line: folding stability dG unfold from trypsin proteolysis; higher = more stable. The procedure, abridged: (§1)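 Bayesian fitting of sequencing counts gave K50 for each design. Unfolding free energy followed by setting this against a sequence-predicted unfolded-state K50 and a shared folded-state K50, either per protease or with trypsin and chymotrypsin combined. The designs, under 80 residues and lacking cysteine, were digested in a PA-tagged cDNA display format at 11 threefold-diluted protease concentrations and without protease, and only those with AlphaFold2 dimer inter-PAE above 15 were kept.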

Data set [2] in a line: folding stability dG unfold from chymotrypsin proteolysis; higher = more stable. An outline of the steps:
as §1

The nature of data set [3]: folding stability dG unfold (combined trypsin and chymotrypsin); higher = more stable. An outline of the steps:
as §1

± gives the half width of the 95% confidence interval.

On to “SAEIEVKPGEELEITVNGKKLRITVEKVEVRVEVKELPPPPPPEVEVYTLTRDPATDELRLERRTAEELASA [r9_881_TrROS_Hall]”, for which the “folding stability dG unfold” value in data set [1] was determined as 0.0576 ± 0.22 kcal/mol; in data set [2], 0.352 ± 0.24 kcal/mol; in data set [3], 0.23 ± 0.15 kcal/mol.
In the case of “SAEIPPDLIAVILGIEPYRFGERDFLVITAAIFRPEEPDAEVTLYTIVIEGDKIVSITPSRYRVPPEALSAG [r14_651_TrMRF]”, the “folding stability dG unfold” value turned out to be 2.92 ± 0.098 kcal/mol in data set [1], 3.86 ± 0.047 kcal/mol in data set [2] and 3.55 ± 0.11 kcal/mol in data set [3].
Turning to “SAEKKVLVKVKIEVFNEDGELVEELELEVEMSAEEVKKKIKEELLKLLKEKYPDKPLTIKVEVEVKELPSAG [r14_570_TrROS_Hall]”, the “folding stability dG unfold” value in data set [1] was determined as 4.36 ± 0.74 kcal/mol; in data set [2] it was 3.61 ± 0.19 kcal/mol; in data set [3] it was 3.67 ± 0.23 kcal/mol.
For “SAELIEALKKAGYRIKIEVEVTEVRVVRNEDGELKVEAKIKVKIEIEPLPPPPPPLSLEDLLDKNGKLVSAG [r14_569_TrROS_Hall]” the same measures were 3.26 ± 0.41 kcal/mol, 3.3 ± 0.13 kcal/mol and 2.95 ± 0.56 kcal/mol.
For “SAENGKWVEVELPIEIWMGNDQLDNFIEEARDIARKHGFEITDIPIKYEPSPDGYRRATIPVKITVPLPSAG [r14_109_TrROS]”, the “folding stability dG unfold” value in data set [1] was 1.06 ± 0.04 kcal/mol; in data set [2] it was 1.06 ± 0.088 kcal/mol; in data set [3], 1.13 ± 0.14 kcal/mol.
On to “SAEPKRYYALVVKRPDGKWLVFYFEDVEEGRERFEEFLRKEFPEDFEVELFEVEPSEAESIEKLLEALGSAG [r14_900_TrMRF]”, for which the “folding stability dG unfold” value in data set [1] came out at 3.07 ± 0.14 kcal/mol; in data set [2], 4.8 ± 0.091 kcal/mol; in data set [3], 4.61 ± 0.17 kcal/mol.
As for “SAEVETVTLELELPEDGYRVTITVTYNKETGEVTVEIRIINPNGEEKTITIKVKSLEEALKKLEFKLLPSAG [r14_749_TrROS_Hall]”, the “folding stability dG unfold” value stood at 2.13 ± 0.056 kcal/mol in data set [1], 2.45 ± 0.054 kcal/mol in data set [2] and 2.36 ± 0.13 kcal/mol in data set [3].
For “SAEVIEKTLTETVIGDTVVTPSVVEFPDGSVVEKVTTVSPDGTVTVTTYYFPPDGVRTFLSTTTVPLDLSAG [r14_680_JUSTAS]” the same measures were 0.585 ± 0.03 kcal/mol, 1.16 ± 0.07 kcal/mol and 0.939 ± 0.07 kcal/mol.
The matching figures for “SAFKIERDPGNGQRKIKIEIPIIFPMGPEMRNMFKNMIKQWLAKHNPNVDIEIDIIPVKSPEQALEQIGSAG [r14_406_TrROS]”: 1.48 ± 0.15 kcal/mol, 2.61 ± 0.3 kcal/mol and 1.98 ± 0.47 kcal/mol.
With “SAFRFPPGQTIMIKIEWRNPGNGKKRKWSIPIRVDPDKGRVITLDMLKSFLRKWGFNPEDVKIEDITVMSAG [r14_93_TrROS]”, the “folding stability dG unfold” value worked out at 2.145 ± 0.013 kcal/mol in data set [1], 1.31 ± 0.069 kcal/mol in data set [2] and 1.81 ± 0.041 kcal/mol in data set [3].
For “SAGAGKTPDGKEYIIPFTFKNENGETTPEEIEEKIKEFTAKHPEVKIKEIKAIKEGDSVKVLVVVEKPASAG [r5_688_TrMRF]” the same measures were 2.61 ± 0.12 kcal/mol, 2.77 ± 0.053 kcal/mol and 2.74 ± 0.28 kcal/mol.
Regarding “SAGAHTVSVHYVEPGSKKLSSVETSEITLEPGEELPLDEVAARFPSENYEVTAQEEPDAITITIYVYRGSAG [r5_269_JUSTAS]”, the “folding stability dG unfold” value was found to be 0.303 ± 0.062 kcal/mol in data set [1], 0.522 ± 0.27 kcal/mol in data set [2] and 0.547 ± 0.087 kcal/mol in data set [3].
On to “SAGAIERILEWLKDQPPGDEVPIPIRLPNGWYIKINIEYNPEENKPKIEVEYYDPDDGKPRQEQKFTIPSAG [r5_35_TrROS]”, for which the “folding stability dG unfold” value in data set [1] turned out to be 1.59 ± 0.077 kcal/mol; in data set [2] it was 0.899 ± 0.17 kcal/mol; in data set [3], 1.31 ± 0.25 kcal/mol.
The matching figures for “SAGAKAEPGPSGRLRIYLPDEPIELDVTEDGTVTLTFPNGEKVEFPVEKEKAALVLAELNALGAVVVPQSAG [r5_753_TrMRF]”: -0.367 ± 0.19 kcal/mol, 1.09 ± 0.055 kcal/mol and 0.712 ± 0.084 kcal/mol.
Turning to “SAGAMQTVTLPTPDGRTVTLRHPGISVSVDPEKRTVTISVPSLGKVYTLTFAPDGTVAELSEEPIPELESAG [r5_342_JUSTAS]”, the “folding stability dG unfold” value in data set [1] was determined as 1.53 ± 0.03 kcal/mol; in data set [2], 3.231 ± 0.025 kcal/mol; in data set [3] it was 2.82 ± 0.11 kcal/mol.
With “SAGAPGEVTVTVVRRPRVETEEERRRRRAPPPPVVTLTLKVPPGWVVRRVAFNADGEIVSVELYRRDDLSAG [r5_750_TrROS_Hall]”, the “folding stability dG unfold” value came to 1.38 ± 0.029 kcal/mol in data set [1], 3.03 ± 0.031 kcal/mol in data set [2] and 2.54 ± 0.06 kcal/mol in data set [3].
For “SAGAPSTREFEILELVPLPPGTTAEELRATLEREVELPDDSVARIRVRAVFLSPGPAFALVLYRVEVRESAG [r5_939_TrMRF]”, the entries for the “folding stability dG unfold” value in data set [1], in data set [2] and in data set [3] were 3.15 ± 0.11 kcal/mol, 3.314 ± 0.015 kcal/mol and 3.22 ± 0.12 kcal/mol, respectively.
For “SAGASPGVRLTERSEEVIEVEPGEKEKLKEEIKKSEKKYPGGLTEKVEYEVDPNSNKVTITITTTTGLSAGG [r19_45_JUSTAS]” the same measures were -0.351 ± 0.23 kcal/mol, 0.664 ± 0.084 kcal/mol and 0.383 ± 0.33 kcal/mol.
In the case of “SAGDADEDPVLVVFVRTEERPLVVVRRVEPDEDPEEVAKELAAEIREKLGPDVEVFVEMVRREDAEKLFSAG [r5_583_TrMRF]”, the “folding stability dG unfold” value in data set [1] came to 2.27 ± 0.052 kcal/mol; in data set [2], 2.44 ± 0.039 kcal/mol; in data set [3] it was 2.42 ± 0.11 kcal/mol.
For “SAGDALKDIFPGLEIEPHEKPVKVPPGKPVEFAFIIRMPDGEIMIFDMHFNPGGEVRVRVLTIKLPEKSAGG [r19_125_TrROS]”, the “folding stability dG unfold” value worked out at 2.88 ± 0.16 kcal/mol in data set [1], 4.81 ± 0.14 kcal/mol in data set [2] and 3.96 ± 0.27 kcal/mol in data set [3].
For “SAGDDLKIKKVEIQINPEHGYISVTFRIDGYEVQIMYDVDPKNGPITMDIYYPGKPIGEFTIPLNDIKISAG [r5_415_TrROS]” the same measures were 1.78 ± 0.083 kcal/mol, 3.01 ± 0.05 kcal/mol and 2.68 ± 0.1 kcal/mol.
Regarding “SAGDEALLERIRARAEAEAKAAGPDPTPLDYRVEVEPVEIDEETGTVKVRVTITAPDREVEREVTVPLVSAG [r5_53_JUSTAS]”, the “folding stability dG unfold” value in data set [1] was 0.315 ± 0.051 kcal/mol; in data set [2] it was -0.113 ± 0.096 kcal/mol; in data set [3] it was 0.0838 ± 0.088 kcal/mol.
Take “SAGDKKTIELWFMFKTPEEARHEADSIARRLAEEGLTIKVELKDIEPMPDPDGEKYYMFEFKVTIQLPNSAG [r5_158_TrROS]”: the entries for the “folding stability dG unfold” value in data set [1], in data set [2] and in data set [3] were 2.55 ± 0.062 kcal/mol, 3.28 ± 0.12 kcal/mol and 3.06 ± 0.14 kcal/mol, respectively.
The matching figures for “SAGDLAEYIAETLQDHFPNMEVEVEIDGVEDGYIVIDITIYFRDMKDNENKPRWVPWEIVIPPGEPLPSAGG [r19_8_TrROS]”: 2.36 ± 0.14 kcal/mol, 4.09 ± 0.051 kcal/mol and 3.38 ± 0.19 kcal/mol.
As to “SAGDMIKIPFNFKDPNGAKPKELEVMISPDPGVITAMFKYKHNNEPKYYMISIPIDPGNGKIEIEIQPMSAG [r5_136_TrROS]”, the “folding stability dG unfold” value stood at 1.2 ± 0.058 kcal/mol in data set [1], 1.65 ± 0.17 kcal/mol in data set [2] and 1.46 ± 0.12 kcal/mol in data set [3].
The matching figures for “SAGDNLKIDVEVEPAKVILGEFDENGKLIKPIEKDVLIVKVTVTFSNGKKLEIRATFFDGKLISVSSGSAGG [r19_44_TrMRF]”: 3.56 ± 0.16 kcal/mol, 5.26 ± 0.086 kcal/mol and 5.07 ± 0.19 kcal/mol.
In the case of “SAGDNNKKPKYVYIPITINVPLPPGQTHEEAVDEVRLIMEELFPPGFKISEVKVHPEYNTVTVWIQIRSAGG [r19_81_TrROS]”, the “folding stability dG unfold” value came to 2.11 ± 0.089 kcal/mol in data set [1], 2.16 ± 0.044 kcal/mol in data set [2] and 2.22 ± 0.18 kcal/mol in data set [3].
For “SAGDPDRPVVVVIHYVDPETGEPRVEVFPADRIERIEVSPDGVLRIHLPAYGLEIDFPLDVVDHVDIASAGG [r19_416_TrMRF]” the same measures were 1.99 ± 0.064 kcal/mol, 2.17 ± 0.044 kcal/mol and 2.12 ± 0.027 kcal/mol.
On to “SAGDPEVVAEAEFPFTFPLAKIEVRISVYPDGTARIEVTITFPAPGKGNPKKPIKLRFRFEIKLAPDALSAG [r5_224_TrMRF]”, for which the figures for the “folding stability dG unfold” value in data set [1], in data set [2] and in data set [3] were 3.8 ± 0.3 kcal/mol, 5.3 ± 0.15 kcal/mol and 5.12 ± 0.36 kcal/mol, respectively.
Consider “SAGDVKIDIHYDEDGYIRVTVPYKSPHEAREEADELARWLAKQFGPKNIDINVEPHPNGMLVIRIPIKKSAG [r5_772_TrROS]”, for which the “folding stability dG unfold” value was 2.17 ± 0.099 kcal/mol in data set [1], 3.05 ± 0.082 kcal/mol in data set [2] and 2.62 ± 0.12 kcal/mol in data set [3].
For “SAGDVPVPATFEVELPGDGTARVTVVRHPGAAPGGFDTVRVEFRPGPTSSVTLTYRVPPGSAPVPFLGGSAG [r5_47_TrMRF]” the same measures were 0.535 ± 0.16 kcal/mol, 1.33 ± 0.31 kcal/mol and 0.965 ± 0.19 kcal/mol.
For “SAGEATVEKLEDGYVVVFKDGSVAFLPAVPPAVPVVEIPFKDPEEGRRAVEELGADVLDIGDDSIVVAGSAG [r5_328_TrMRF]” the same measures were -1.19 ± 0.16 kcal/mol, 0.346 ± 0.033 kcal/mol and -0.01 ± 0.1 kcal/mol.
For “SAGEEIEELAKKLADELREKYPELEVKVEVVEVTVKTTVVKDKETGKLYTKTEITVKLKVEVVPKEELSAGG [r19_293_TrROS_Hall]” the same measures were 1.99 ± 0.23 kcal/mol, 3.81 ± 0.21 kcal/mol and 3.08 ± 0.31 kcal/mol.
In the case of “SAGEEIERLLKEIEEAVRKAYPDKVVKVDLVKVELRPVLVVDPGTPRIEERTEIFLEVKVTVTHPDELSAGG [r19_293_TrMRF]”, the “folding stability dG unfold” value in data set [1] was 2.22 ± 0.098 kcal/mol; in data set [2], 2.77 ± 0.08 kcal/mol; in data set [3] it was 2.63 ± 0.087 kcal/mol.
The matching figures for “SAGEELIKKLAEELNLEVEIVSVEVDEETPTITVEVRVRNKDGEELTVRITITYDKETDEVHIEVEVLPSAG [r5_929_TrROS_Hall]”: 3.91 ± 0.14 kcal/mol, 3.99 ± 0.26 kcal/mol and 4.08 ± 0.2 kcal/mol.
With “SAGEEVYLITVRIIDPETNEVKEITKLIKNKTEDEILEELRKLLEELGIELPEGAKVEITITKIKPPPESAG [r5_230_TrROS_Hall]”, the “folding stability dG unfold” value in data set [1] stood at 3.53 ± 0.52 kcal/mol; in data set [2], 4.07 ± 0.44 kcal/mol; in data set [3], 4.26 ± 0.82 kcal/mol.
